Values belong to the binder of their own block, whether it stands above or below them.
Tests used:
[1] = target: T1, recombinant human CTLA4 extracellular domain (human, UniProt P16410 36-161); assay: ELISA, wells coated with human CTLA4, assay pH 7.4; lot 6978 without test buffer; curve still rising at log 3 (OD450 about 0.2), no plateau; same column repeated in FIG. 9E and FIG. 9F; unit from the axis Log[ng/mL]
T1 construct: extracellular domain; also called huCTLA-4
T1 sequence (looked up): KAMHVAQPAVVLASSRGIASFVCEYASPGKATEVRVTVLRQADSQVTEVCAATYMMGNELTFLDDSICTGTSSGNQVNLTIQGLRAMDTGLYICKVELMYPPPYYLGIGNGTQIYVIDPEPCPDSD
Protocol: (§1) Both ELISA and FACS analysis were used to measure the binding activity. […] The amount of bound antibodies was quantified using anti-human IgG antibody conjugated to HRP. The absorbance at 450 nm in each measurement was proportional to the amount of antibodies bound. […] EC50 value (in ng/mL) for binding to human CTLA4 was determined by absorbance at 450 nm against antibody concentration with Prism variable slope of four-parameter dose-response curve, which was calculated using the nonlinear fit (variable slope, four parameters) model built into GraphPad Prism software (version 7.03). The buffers tested included His buffer (His), Tris buffer (Tris), Glutamine buffer (Glu) and no buffer.

[2] = target: T1, recombinant human CTLA4 extracellular …; assay: ELISA, wells coated with human CTLA4, assay pH 6.0; lot 6978 without test buffer; same column repeated in FIG. 9E and FIG. 9F; unit from the axis Log[ng/mL]
Protocol: as §1

[3] = target: T1, recombinant human CTLA4 extracellular …; assay: ELISA, wells coated with human CTLA4, assay pH 6.0; lot 6978 in Glu buffer, T2W; unit from the axis Log[ng/mL]
Protocol: as §1

[4] = target: T2, human CTLA4 expressed on the cell surface of CHO cells (human, UniProt P16410 36-223); assay: FACS, CHO cells expressing human CTLA4 (CHO-huCTLA-4), pH 7.4, MFI; curve still rising at log 5, no plateau; no unit in the table, unit from the axis Log Antibodies [ng/ml]
T2 construct: whole, on cells; also called CHO-huCTLA4; huCTLA4
T2 sequence (looked up): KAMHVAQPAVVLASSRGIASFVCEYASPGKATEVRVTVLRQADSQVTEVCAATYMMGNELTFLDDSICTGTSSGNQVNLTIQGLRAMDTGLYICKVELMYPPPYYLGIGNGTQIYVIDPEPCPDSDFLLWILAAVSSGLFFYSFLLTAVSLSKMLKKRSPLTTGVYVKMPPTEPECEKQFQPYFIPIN
Protocol: (§2) The amount of antibodies bound on the cells was quantified using anti-human IgG antibody conjugated to fluorophores. EC₅₀ values at pH 6.0 and 7.4 for binding to cells were calculated using the nonlinear fit (variable slope, four parameters) model built into GraphPad Prism software (version 7.03). The expression levels of human CTLA4 or cynomolgus CTLA4 on the surface of the CHO cells were determined using a BD QuantiBRITE™ PE kit.
At least two independent duplicate FACS experiments were performed for each antibody using each of the cell lines. The binding activities at different concentrations of the antibodies are plotted in these figures.

[5] = target: T2, human CTLA4 expressed on the cell …; assay: FACS, cells expressing human CTLA4, assay pH 6.0, MFI; lot 6978 in Glu buffer, T0; unit from the axis Log[ng/mL]
Protocol: (§3) The amount of bound antibodies was quantified using anti-human IgG antibody conjugated to fluorophores. The MFI in each reaction was proportional to the amount of antibodies bound. The EC₅₀ value (in ng/mL) for binding to human CTLA4 on cells was determined by MFI of the singlets population against antibody concentration with a Prism variable slope of four-parameter dose-response curve, which was calculated using the nonlinear fit (variable slope, four parameters) model built into GraphPad Prism software (version 7.03).

[6] = target: T2, human CTLA4 expressed on the cell …; assay: FACS saturation, CHO-huCTLA-4, pH 7.4, MFI, titration up to about log 6.5, curve still rising at the end; no unit in the table, unit from the axis Log Antibodies [ng/ml]
Protocol: as §2
Finally, saturations of the antibodies on the CHO cells expressing human or cynomolgus CTLA4 at pH 7.4 were also measured by FACS (FIGS. 8A-8B).

[7] = target: T1, recombinant human CTLA4 extracellular …; assay: ELISA, wells coated with human CTLA4, assay pH 6.0; lot 6978 in Glu buffer, T0; unit from the axis Log[ng/mL]
Protocol: as §1

[8] = target: T2, human CTLA4 expressed on the cell …; assay: FACS, cells expressing human CTLA4, assay pH 6.0, MFI; lot 6972 in Glu buffer, T2W; unit from the axis Log[ng/mL]
Protocol: as §3

[9] = target: T2, human CTLA4 expressed on the cell …; assay: FACS, cells expressing human CTLA4, assay pH 7.4, MFI; lot 6972 in Glu buffer, T2W; unit from the axis Log[ng/mL]
Protocol: as §3

[10] = target: T1, recombinant human CTLA4 extracellular …; assay: ELISA, wells coated with human CTLA4, assay pH 6.0; lot 6972 in Glu buffer, T0; unit from the axis Log[ng/mL]
Protocol: as §1

[11] = target: T2, human CTLA4 expressed on the cell …; assay: FACS, cells expressing human CTLA4, assay pH 6.0, MFI; lot 6972 in Tris buffer, T0; unit from the axis Log[ng/mL]
Protocol: as §3

[12] = target: T1, recombinant human CTLA4 extracellular …; assay: ELISA, wells coated with human CTLA4, assay pH 6.0; lot 6972 without test buffer; same column repeated in FIG. 9B and FIG. 9C; unit from the axis Log[ng/mL]
Protocol: as §1

EC50 [1]: 1.14 µg/mL
EC50 [2]: 0.0222 µg/mL
EC50 [3]: 0.0123 µg/mL
EC50 [4]: 41.1 µg/mL
EC50 [5]: ~0.15 µg/mL
EC50 [6]: 69.6 µg/mL
EC50 [7]: 0.0337 µg/mL
B1: BA-087-08-32 (antibody, V domains shown)
VH: EVQLVQSGAEVKKPGATVKISCKVSGFTFSHYTMHWIRQSPSRGLEWLGFISYDGNYKYYADSVKGRFTISRDNAKNSLYLQMNSLRAEDTAVYYCARTGWLGPFDYWGQGTLVTVSS
VL: EIVMTQSPATLSVSPGERATLSCRASQSVGSSYLAWYQQKPGKAPKLLIYGAFSRATGVPSRFSGSGSGTDFTLTISSLQPEDFATYYCQQDGSSPWTFGQGTKVEIK
notes: Detected with anti-human IgG and a molecular weight of 146 kDa was used in SPR, so it was tested as a whole IgG; also called BA-087-08-032; BA-087-08-32 (# 6978)

EC50 [8]: 0.267 µg/mL
EC50 [9]: 0.607 µg/mL
EC50 [10]: 0.0109 µg/mL
EC50 [11]: 0.291 µg/mL
EC50 [12]: 0.00626 µg/mL
B2: BA-087-05-19 (antibody, V domains shown)
VH: EVQLVESGGGLVQPGGSLRLSCAASGFTFSHYTMHWVRQAPGKGLEWVSFISYDGNNKYYADSVKGRFTISRDNSKNTLYLQMNSLRAEDTAVYYCARTGWLGPFDYWGQGTLVTVSS
VL: AIQLTQSPSSLSASVGDRVTITCRASQYVGSSYLAWYLQKPGQSPQLLIYGAFSRATGIPARFSGSGSGTEFTLTISSLQSEDFAVYYCQQDGSSPWTFGQGTKVEIK
notes: Detected with anti-human IgG and a molecular weight of 146 kDa was used in SPR, so it was tested as a whole IgG; also called BA-087-05-019; BA-087-05-19 (# 6972)
